# B1: GATA probe, two GATA sites (dsDNA)
# DNA 1: CACTTGATAACACAAAGTGATAACTCT
# DNA 2: AGAGTTATCACTTTGTGTTATCAAGTG
# B2: mutant GATA competitor (dsDNA)
# DNA 1: CACTTAGCGACACAAAGTAGCGACTCT
# DNA 2: AGAGTCGCTACTTTGTGTCGCTAAGTG
# Legend:
# FAM122A = FAM122A (UniProt Q96E09 1-287); assay: EMSA
# GATA1 = GATA1 (UniProt P15976 1-413); assay: competition
# Sequence of GATA1 (P15976 whole entry): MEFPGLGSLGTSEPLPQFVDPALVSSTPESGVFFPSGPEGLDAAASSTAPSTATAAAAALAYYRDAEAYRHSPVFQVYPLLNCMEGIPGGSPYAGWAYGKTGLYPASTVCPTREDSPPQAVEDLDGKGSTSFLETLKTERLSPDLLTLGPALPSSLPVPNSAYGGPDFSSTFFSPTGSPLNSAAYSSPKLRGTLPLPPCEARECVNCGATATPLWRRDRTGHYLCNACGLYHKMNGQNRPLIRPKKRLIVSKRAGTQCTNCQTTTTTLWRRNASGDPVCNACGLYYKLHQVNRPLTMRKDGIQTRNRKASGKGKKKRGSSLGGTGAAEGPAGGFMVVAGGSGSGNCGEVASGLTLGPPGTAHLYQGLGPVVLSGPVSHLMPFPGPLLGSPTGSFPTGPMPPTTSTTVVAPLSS
# Sequence of FAM122A (Q96E09 whole entry): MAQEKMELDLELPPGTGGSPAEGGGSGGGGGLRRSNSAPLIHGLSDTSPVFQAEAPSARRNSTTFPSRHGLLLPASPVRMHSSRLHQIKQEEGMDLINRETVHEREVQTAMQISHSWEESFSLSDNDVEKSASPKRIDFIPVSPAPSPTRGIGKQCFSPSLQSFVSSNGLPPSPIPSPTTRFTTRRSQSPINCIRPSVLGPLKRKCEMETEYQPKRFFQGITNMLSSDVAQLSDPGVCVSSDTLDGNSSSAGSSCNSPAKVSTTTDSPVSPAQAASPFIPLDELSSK
Binder,binding result (FAM122A),binding result (GATA1)
B1,no binding,
B2,,no binding

# Reference: PMC7486200
